The assay deals with the unphosphorylated T-PY motif (Smad2 or Smad3 peptide). Description: ITC. On the technique in general: Isothermal titration calorimetry measures the heat released or taken up as one component is titrated into another.

In turn, “recombinant Nedd4L WW2 domain (domain or fragment)” had a fold lower affinity than for the pT-PY motif peptide of 7 to 15 fold.

(Values after PMC2796330.)
